Results published in paper PMC2899887 (Biochemistry, 2010).
Where no end group is shown, it is not given here.

T1: isolated 2nd SH3 domain (SH3.2) of human Nck2, residues 112-168 (human, UniProt O43639 112-168)
T1 sequence (looked up): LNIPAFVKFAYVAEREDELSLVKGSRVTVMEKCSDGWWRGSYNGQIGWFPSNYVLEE

T2: Nck2_70-168 (human, UniProt O43639 70-168)
T2 sequence (looked up): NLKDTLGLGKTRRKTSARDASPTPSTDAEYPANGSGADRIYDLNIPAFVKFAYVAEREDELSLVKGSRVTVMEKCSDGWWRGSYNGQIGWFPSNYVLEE


What was measured:
[1] = biological target: EGFR 647-654 (Homo sapiens) (UniProt P00533); experiment: NMR; conditions: cited from earlier work
[2] = biological target: T1, isolated 2nd SH3 domain (SH3.2) of …; experiment: NMR titration
Nck2_70-168 = biological target: T2, Nck2_70-168; experiment: NMR titration

| Molecule | fold increase of Kd against the isolated SH3.2 domain (Nck2_70-168) [fold] | further results |
| --- | --- | --- |
| Nck1 SH3.2 (from UniProt P16333) |  | Kd [1]: 80 µM |
| LKDTLGLGKTRRKTSARDAS-NH2 [Nck2_71-90 peptide] |  | Kd [2]: ~1700 µM |

Further lines, with some results ahead:

| fold increase of Kd against the isolated SH3.2 domain (Nck2_70-168) [fold] | Molecule | further results |
| --- | --- | --- |
| 4.7 | QDKPPAPPMRN-NH2 [Pak1 peptide (9-QDKPPAPPMRN-19)] |  |
| 4.7 | EVPVPPPVPPRR-NH2 [SOS1 peptide (1146-EVPVPPPVPPRR-1157)] |  |
